Reference: EP4796129A1 (Celltrion, Inc., dated 2025)
Positions count from the first letter of the chain named. One block for each binder: values may come before it.

Tests used:
[1] = molecular target: T1, recombinant human Nectin-2 (human, UniProt Q92692 32-360, limits assumed); experiment: ELISA
T1 construct: Recombinant protein; construct not described
T1 sequence (looked up): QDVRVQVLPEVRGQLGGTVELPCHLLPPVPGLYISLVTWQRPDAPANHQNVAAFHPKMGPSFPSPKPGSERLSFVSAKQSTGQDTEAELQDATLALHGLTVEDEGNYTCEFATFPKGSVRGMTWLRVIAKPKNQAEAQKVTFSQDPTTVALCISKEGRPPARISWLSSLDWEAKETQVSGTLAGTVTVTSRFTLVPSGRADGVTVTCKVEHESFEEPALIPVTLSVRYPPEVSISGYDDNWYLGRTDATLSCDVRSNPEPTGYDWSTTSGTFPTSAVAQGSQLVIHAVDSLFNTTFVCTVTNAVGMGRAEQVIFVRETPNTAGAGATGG

[2] = molecular target: T2, recombinant human Nectin-3 (human, UniProt Q9NQS3 58-404, limits assumed); experiment: ELISA
T2 construct: Recombinant protein; construct not described
T2 sequence (Q9NQS3 58-404 limits assumed): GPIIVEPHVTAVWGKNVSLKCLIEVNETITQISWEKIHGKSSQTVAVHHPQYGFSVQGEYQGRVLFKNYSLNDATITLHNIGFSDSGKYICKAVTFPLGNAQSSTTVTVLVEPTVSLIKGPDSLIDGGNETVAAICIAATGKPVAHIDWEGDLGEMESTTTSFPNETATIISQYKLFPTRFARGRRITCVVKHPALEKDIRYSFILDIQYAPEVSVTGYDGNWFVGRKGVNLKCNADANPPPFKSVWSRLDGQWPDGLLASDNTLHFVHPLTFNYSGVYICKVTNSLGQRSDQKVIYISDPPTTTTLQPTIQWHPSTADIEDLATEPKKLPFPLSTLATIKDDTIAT

[3] = molecular target: T3, recombinant human Nectin-1 (human, UniProt Q15223 31-334, limits assumed); experiment: ELISA
T3 construct: Recombinant protein; construct not described
T3 sequence (looked up): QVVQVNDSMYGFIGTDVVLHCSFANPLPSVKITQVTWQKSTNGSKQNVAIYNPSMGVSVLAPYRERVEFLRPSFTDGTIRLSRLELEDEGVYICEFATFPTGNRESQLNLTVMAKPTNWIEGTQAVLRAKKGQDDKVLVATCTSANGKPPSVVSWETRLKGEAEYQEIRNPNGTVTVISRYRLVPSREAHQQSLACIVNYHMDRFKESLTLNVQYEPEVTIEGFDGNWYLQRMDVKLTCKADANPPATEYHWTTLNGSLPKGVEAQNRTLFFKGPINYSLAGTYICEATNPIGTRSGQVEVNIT

[4] = molecular target: T4, recombinant cynomolgus monkey Nectin-4 protein (cynomolgus monkey, UniProt A0A2K5WES1 32-349); experiment: BLI, antibody as loading sample
T4 construct: Recombinant protein; construct not described; also called cynomolgus Nectin-4
T4 sequence: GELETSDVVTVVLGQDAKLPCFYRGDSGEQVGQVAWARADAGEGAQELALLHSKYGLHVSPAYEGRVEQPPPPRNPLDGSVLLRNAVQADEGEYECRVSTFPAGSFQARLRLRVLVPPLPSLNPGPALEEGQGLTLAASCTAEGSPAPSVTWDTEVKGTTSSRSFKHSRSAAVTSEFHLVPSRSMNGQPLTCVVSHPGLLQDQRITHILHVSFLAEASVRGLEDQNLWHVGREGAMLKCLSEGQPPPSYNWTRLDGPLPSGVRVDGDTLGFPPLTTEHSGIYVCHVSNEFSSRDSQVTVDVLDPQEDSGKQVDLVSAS

[5] = molecular target: T5, recombinant human Nectin-4 protein (human, UniProt Q96NY8 32-349); experiment: BLI, antibody as loading sample
T5 construct: Recombinant protein; construct not described
T5 sequence (looked up): T4 sequence with A39V, V230I

[6] = molecular target: T6, recombinant rat Nectin-4 protein (rat, UniProt D3ZET1 31-348); experiment: BLI, antibody as loading sample
T6 construct: Recombinant protein; construct not described
T6 sequence: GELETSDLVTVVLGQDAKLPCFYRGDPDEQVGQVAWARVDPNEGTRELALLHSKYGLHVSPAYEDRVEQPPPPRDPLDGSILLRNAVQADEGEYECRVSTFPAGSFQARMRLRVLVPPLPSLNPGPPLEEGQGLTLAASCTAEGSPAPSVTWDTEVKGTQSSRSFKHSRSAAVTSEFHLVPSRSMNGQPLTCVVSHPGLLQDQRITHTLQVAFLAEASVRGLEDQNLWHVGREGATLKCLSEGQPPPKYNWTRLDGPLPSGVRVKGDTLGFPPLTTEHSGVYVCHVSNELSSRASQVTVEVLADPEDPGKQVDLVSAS

[7] = molecular target: T4, recombinant cynomolgus monkey Nectin-4 …; experiment: ELISA on recombinant protein
[8] = molecular target: T5, recombinant human Nectin-4 protein; experiment: ELISA on recombinant protein
[9] = molecular target: T6, recombinant rat Nectin-4 protein; experiment: ELISA on recombinant protein

- binding result [1]: no binding
- binding result [2]: no binding
- binding result [3]: no binding
- Kd [4]: 1.78 nM
- Response [4]: 0.643
- Kd [5]: 2.89 nM
- Response [5]: 0.621
- Kd [6]: 3.2 nM
- Response [6]: 0.511
- EC50 [7]: 7.94 ng/mL
- EC50 [8]: 8.31 ng/mL
- EC50 [9]: 9.88 ng/mL
B1: Enfortumab-PBX-7016 ADC (antibody, V domains shown)
VH: EVQLVESGGGLVQPGGSLRLSCAASGFTFSSYNMNWVRQAPGKGLEWVSYISSSSSTIYYADSVKGRFTISRDNAKNSLSLQMNSLRDEDTAVYYCARAYYYGMDVWGQGTTVTVSS
VL: DIQMTQSPSSVSASVGDRVTITCRASQGISGWLAWYQQKPGKAPKFLIYAASTLQSGVPSRFSGSGSGTDFTLTISSLQPEDFATYYCQQANSFPPTFGGGTKVEIKR
modifications: mc-GGFG-PBX-7016 linker-payload on cysteine thiols freed by TCEP reduction of the disulfides; positions not given

- binding result [1]: no binding
- binding result [2]: no binding
- binding result [3]: no binding
- Kd [4]: 6.05 nM
- Response [4]: 0.67
- koff [4]: 0.00191 s⁻¹
- kon [4]: 316000 M⁻¹ s⁻¹
- Kd [5]: 5.02 nM
- Response [5]: 0.681
- koff [5]: 0.00136 s⁻¹
- kon [5]: 271000 M⁻¹ s⁻¹
- Kd [6]: 3.96 nM
- Response [6]: 0.606
- koff [6]: 0.00149 s⁻¹
- kon [6]: 376000 M⁻¹ s⁻¹
- EC50 [7]: 8.43 ng/mL
- EC50 [8]: 8.38 ng/mL
- EC50 [9]: 9.63 ng/mL
B2: Enfortumab mAb (antibody, human IgG1, kappa, V domains shown)
VH: B1 VH
VL: B1 VL
notes: Naked antibody (source: Abinvivo); also called anti-Nectin-4 antibody (Enfortumab); anti-Nectin4 mAb
